Paper PMC4388643

Experiments:
[1] = zymography; details: glycan lost; control: nLcc4 (untreated)
[2] = activity versus pH and temperature; details: glycan lost; control: nLcc4 (untreated)
[3] = zymography of culture media; details: glycan lost; control: rLcc4-WT (P. pastoris)

B1: Lcc4 laccase (nLcc4): Endo H, 1 h to overnight (protein)
parent chain: MKALSFLTPIVTLALVAGAFASVGPVANLKIGNAAVSPDGYTRDAVVVNGATPGPLIVGNKGDNFRLNVIDELTNHTMLKSTSIHWHGFFQHGTNWADGGAFVNQCPISSGHSFSYNFQAKDQAGTFWYHSHLSTQYCDGLRGPFVVYDPKDPHKKLYDVDNESTVITLEDWYHTAARLGPRFPLGSDSTLINGLGRSATTATGDLAVIKVTRGKRYRFRLVSLSCDPFYTFSIDGHNMTIIEADAVNTKPHTVDSLEIFAGQRYSFILNANQPVDNYWVRANPNFGNVGFTNGINSAILRYDGAAVAEPATAIPPASVTPLLETDLHPLVSTPVPGSPVAGGVDKALNFVFNFDGTNFFINDATFTPPSVPVLLQILSGAQAAQDLLPSGSVIPLPALSTIELSFPATANAPGVPHPFHLHGHTFAVVRSAGSTAYNYEDPVWRDVVSTGTPAAGDNVTIRFVTDNPGPWFLHCHIDFHLEAGFAVVFAEDLPGTPAANPVPQSWSDLCPIYDALAEDDQ
enzymatic_activity [1]: no change

B2: Lcc4 laccase (nLcc4): Endo H (dLcc4) (protein)
parent chain: MKALSFLTPIVTLALVAGAFASVGPVANLKIGNAAVSPDGYTRDAVVVNGATPGPLIVGNKGDNFRLNVIDELTNHTMLKSTSIHWHGFFQHGTNWADGGAFVNQCPISSGHSFSYNFQAKDQAGTFWYHSHLSTQYCDGLRGPFVVYDPKDPHKKLYDVDNESTVITLEDWYHTAARLGPRFPLGSDSTLINGLGRSATTATGDLAVIKVTRGKRYRFRLVSLSCDPFYTFSIDGHNMTIIEADAVNTKPHTVDSLEIFAGQRYSFILNANQPVDNYWVRANPNFGNVGFTNGINSAILRYDGAAVAEPATAIPPASVTPLLETDLHPLVSTPVPGSPVAGGVDKALNFVFNFDGTNFFINDATFTPPSVPVLLQILSGAQAAQDLLPSGSVIPLPALSTIELSFPATANAPGVPHPFHLHGHTFAVVRSAGSTAYNYEDPVWRDVVSTGTPAAGDNVTIRFVTDNPGPWFLHCHIDFHLEAGFAVVFAEDLPGTPAANPVPQSWSDLCPIYDALAEDDQ
other: optimal pH and temperature [2]: no change

B3: Lcc4 laccase (nLcc4): N458D (protein)
parent chain: MKALSFLTPIVTLALVAGAFASVGPVANLKIGNAAVSPDGYTRDAVVVNGATPGPLIVGNKGDNFRLNVIDELTNHTMLKSTSIHWHGFFQHGTNWADGGAFVNQCPISSGHSFSYNFQAKDQAGTFWYHSHLSTQYCDGLRGPFVVYDPKDPHKKLYDVDNESTVITLEDWYHTAARLGPRFPLGSDSTLINGLGRSATTATGDLAVIKVTRGKRYRFRLVSLSCDPFYTFSIDGHNMTIIEADAVNTKPHTVDSLEIFAGQRYSFILNANQPVDNYWVRANPNFGNVGFTNGINSAILRYDGAAVAEPATAIPPASVTPLLETDLHPLVSTPVPGSPVAGGVDKALNFVFNFDGTNFFINDATFTPPSVPVLLQILSGAQAAQDLLPSGSVIPLPALSTIELSFPATANAPGVPHPFHLHGHTFAVVRSAGSTAYNYEDPVWRDVVSTGTPAAGDNVTIRFVTDNPGPWFLHCHIDFHLEAGFAVVFAEDLPGTPAANPVPQSWSDLCPIYDALAEDDQ
enzymatic_activity [3]: abolishes

B4: Lcc4 laccase (nLcc4): N75D (protein)
parent chain: MKALSFLTPIVTLALVAGAFASVGPVANLKIGNAAVSPDGYTRDAVVVNGATPGPLIVGNKGDNFRLNVIDELTNHTMLKSTSIHWHGFFQHGTNWADGGAFVNQCPISSGHSFSYNFQAKDQAGTFWYHSHLSTQYCDGLRGPFVVYDPKDPHKKLYDVDNESTVITLEDWYHTAARLGPRFPLGSDSTLINGLGRSATTATGDLAVIKVTRGKRYRFRLVSLSCDPFYTFSIDGHNMTIIEADAVNTKPHTVDSLEIFAGQRYSFILNANQPVDNYWVRANPNFGNVGFTNGINSAILRYDGAAVAEPATAIPPASVTPLLETDLHPLVSTPVPGSPVAGGVDKALNFVFNFDGTNFFINDATFTPPSVPVLLQILSGAQAAQDLLPSGSVIPLPALSTIELSFPATANAPGVPHPFHLHGHTFAVVRSAGSTAYNYEDPVWRDVVSTGTPAAGDNVTIRFVTDNPGPWFLHCHIDFHLEAGFAVVFAEDLPGTPAANPVPQSWSDLCPIYDALAEDDQ
enzymatic_activity [3]: decreases, the N75D mutant showed activity at around 60 s

B5: Lcc4 laccase (nLcc4): N238D (protein)
parent chain: MKALSFLTPIVTLALVAGAFASVGPVANLKIGNAAVSPDGYTRDAVVVNGATPGPLIVGNKGDNFRLNVIDELTNHTMLKSTSIHWHGFFQHGTNWADGGAFVNQCPISSGHSFSYNFQAKDQAGTFWYHSHLSTQYCDGLRGPFVVYDPKDPHKKLYDVDNESTVITLEDWYHTAARLGPRFPLGSDSTLINGLGRSATTATGDLAVIKVTRGKRYRFRLVSLSCDPFYTFSIDGHNMTIIEADAVNTKPHTVDSLEIFAGQRYSFILNANQPVDNYWVRANPNFGNVGFTNGINSAILRYDGAAVAEPATAIPPASVTPLLETDLHPLVSTPVPGSPVAGGVDKALNFVFNFDGTNFFINDATFTPPSVPVLLQILSGAQAAQDLLPSGSVIPLPALSTIELSFPATANAPGVPHPFHLHGHTFAVVRSAGSTAYNYEDPVWRDVVSTGTPAAGDNVTIRFVTDNPGPWFLHCHIDFHLEAGFAVVFAEDLPGTPAANPVPQSWSDLCPIYDALAEDDQ
enzymatic_activity [3]: abolishes
